Data on two substances can be found in paper PMC5736220.

Assay [1] has as its target protocadherin-15 EC1+2 I22A, His-tagged (mouse) (UniProt Q99PJ1). The assay is described as follows: thermal scanning (thermal stability shift assay with SYPRO orange); pcdh15 fixed at 0.1 mg/mL (~4 μM), cdh23 0.1 to 0.5 mg/mL (~4 to 20 μM; cdh23:pcdh15 1:1 to 5:1); SEC buffer (20 mM Tris-HCl pH 7.5, 150 mM KCl, 50 mM NaCl, 2 mM CaCl2); 10 to 95°C in 0.2°C steps, 5 s equilibration; read-out: shift of the Tm of pcdh15 (ΔTm).

The next assay deals with pcdh15 (Mus musculus) (UniProt Q99PJ1). Briefly: ITC. The conditions noted are these: cited from earlier work.

Consider “cadherin-23 EC1+2, wild type, His-tagged (from UniProt Q99PF4 24-228) (domain or fragment)”, for which, in assay [1], the ΔTm of pcdh15 at cdh23:pcdh15 1:1 worked out at 0.5 °C, the ΔTm of pcdh15 at cdh23:pcdh15 2:1 came to 0.7 °C, the ΔTm of pcdh15 at cdh23:pcdh15 3:1 was found to be 1 °C and the ΔTm of pcdh15 at cdh23:pcdh15 4:1 amounted to 1.1 °C. Further, the ΔTm of pcdh15 at cdh23:pcdh15 5:1 in assay [1] amounted to 1 °C.
By Kd is commonly meant the equilibrium constant for the complex coming apart. For the substance cdh23 (from UniProt Q99PF4), the Kd in the assay with pcdh15 (Mus musculus) is 2900 nM.
